Data taken from patent publication US20170296650A1 (Novartis, published 2017).

B1: 7I13 (antibody, V domains shown)
VH: QVQLVESGGGVVQPGRSLRLSCAASGFTFSNYGMHWVRQGPGKGLEWVAVISYDASSKYYTDSVQGRFTISRDNSKNTLFLQMNSLRGEDTAVYYCAKALRYLDWFLSDPFDYWGQGTLVTVSS
VL: EIVLTQSPGTLSLSPGERATLSCRASQSVSSDFLAWYQQKPGQAPRLLIYGASSRATGIPDRFSGSGSGTDFTLTISRLEPEDFAVYYCQQYAASPPFGQGTRLEIK
notes: human IgG; also called 7113
B2: 8C15 (antibody, V domains shown)
VH: QVQLQESGPGLVKPSETLSLTCTVSGGSIRSYYWSWIRQPPGKGLEWIGHIYYSGNTNYSPSLQSRVTISLDTPKNQFSLRLSSVTAADTAVYYCARHDVIVVRGVFDVWGQGTVVTVSS
VL: QSALTQPASVSGSPGQSITISCTGTSSDIGTYNLVSWYQQHPGKAPKVLIYDGSKRPSGVSSRFSASKSGNTASLTISGLQAEDETDYYCCSYAGTSDFFVVFGGGTKLTVL
notes: human IgG; also called 8C15-biotin
B3: 9I6 (antibody, V domains shown)
VH: EVQLVQSGAEVKKPGESLKISCRESGDTFPAYWIAWVRQMPGKGLEWMGIIYPIDSETTYSPSFQGQVTISADKSINTAYLQWSSLKASDSAIYYCARGTSTGLREAFHIWGQGTMVTVSS
VL: DVVMTQSPLSLAVTLGQPAYISCRSSQSLGYSDGNTYLNWFQQRPGQSPRRLIYEVSNRDSGVPDRFSGSGSGTDFTLKISRVEAEDVGTYYCMQGTHWPPMCSFGQGTKLEIK
notes: human IgG; also called 9I6-biotin; 916
B4: 8J16 (antibody, V domains shown)
VH: QVQLQESGPGLVKPSETLSLTCSVSGGFTSSYYWSWIRQAPGKGLEWIGYVYYGESTDYNPSLKSRATISIDTSKNQFSLKLSSVTAADTAVYYCAREVDKRGFDYWGQGALVTVSS
VL: EIVLTQSPGTLSLSPGERATLSCRASQSVSGGYLAWYQQEPGQAPRLVIYGASSRATGIPDRFSASGSGTDFTLTITRLEPEDFAVYYCQQYGRTPLTFGGGTKVEIK
notes: human IgG; also called 8J16-biotin

Molecular target: T1, hCMV UL128 + UL130 + UL131A (HEK293T co-transfectant) (hCMV, UniProt P16837 1-171; P16772 1-214)
T1 sequence (P16837 whole entry, chain 1 of 2): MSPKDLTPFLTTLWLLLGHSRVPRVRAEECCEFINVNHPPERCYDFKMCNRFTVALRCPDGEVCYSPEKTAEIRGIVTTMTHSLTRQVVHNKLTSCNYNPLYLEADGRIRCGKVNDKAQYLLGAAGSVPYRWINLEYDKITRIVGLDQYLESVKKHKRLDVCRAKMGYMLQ
T1 sequence (P16772 whole entry, chain 2 of 2): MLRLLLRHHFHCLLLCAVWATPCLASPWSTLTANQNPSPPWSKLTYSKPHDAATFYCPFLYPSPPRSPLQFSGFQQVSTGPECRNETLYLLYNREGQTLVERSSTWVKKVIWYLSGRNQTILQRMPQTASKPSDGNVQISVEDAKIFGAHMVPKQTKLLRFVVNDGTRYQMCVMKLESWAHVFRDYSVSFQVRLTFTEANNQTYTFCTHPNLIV
Assay: cell-based or functional assay

Row | Binder | 50% neutralization VR1814, ARPE | 50% neutralization VR1814, MRC-9
1 | B1 | < 0.01 µg/mL | > 2 µg/mL
2 | B2 | < 0.001 µg/mL | > 2 µg/mL
3 | B3 | < 0.001 µg/mL | > 2 µg/mL
4 | B4 | < 0.001 µg/mL | > 2 µg/mL

Molecular target: T1, hCMV UL128 + UL130 + UL131A (HEK293T …)
Assay: cell-based or functional assay
Remark: another data set of the same source

Row | Binder | 90% neutralization VR1814, ARPE | 90% neutralization VR1814, MRC-9
5 | B1 | 0.008 µg/mL | > 10 µg/mL
6 | B2 | 0.0025 µg/mL | > 10 µg/mL
7 | B3 | 0.0007 µg/mL | > 10 µg/mL
8 | B4 | 0.0008 µg/mL | > 10 µg/mL

Molecular target: T2, hCMV gH + gL + UL128 + UL130 + UL131A (5-member complex; HEK293T co-transfectant) (hCMV, UniProt P12824 24-743; P16832 31-278; P16837 1-171; P16772 1-214)
T2 construct: whole, on cells; in the functional rows it stands for the complex on virions or transduced cells of the strain or isolate named in the readout; also called gH/gL/UL128-131A complex; pentameric complex
Assay: cell competition; competitor 2F4-biotin

Row | Binder | Inhibition of binding (%)
9 | B3 | 0%
10 | B4 | 0%

Molecular target: T2, hCMV gH + gL + UL128 + UL130 + UL131A …
Assay: cell competition; competitor 6G4-biotin

Row | Binder | Inhibition of binding (%)
11 | B1 | 0%
12 | B2 | 100%
13 | B3 | 100%
14 | B4 | 100%

Molecular target: T2, hCMV gH + gL + UL128 + UL130 + UL131A …
Assay: cell competition; competitor 9I6-biotin

Row | Binder | Inhibition of binding (%)
15 | B1 | 0%
16 | B2 | 100%
17 | B3 | 100%
18 | B4 | 70%

Molecular target: T2, hCMV gH + gL + UL128 + UL130 + UL131A …
Assay: cell competition; competitor 1F11-biotin

Row | Binder | Inhibition of binding (%)
19 | B1 | 0%
20 | B3 | 0%
21 | B4 | 0%

Molecular target: T2, hCMV gH + gL + UL128 + UL130 + UL131A …
Assay: cell competition; competitor 4I22-biotin

Row | Binder | Inhibition of binding (%)
22 | B2 | 0%
23 | B3 | 0%
24 | B4 | 0%

Molecular target: T2, hCMV gH + gL + UL128 + UL130 + UL131A …
Assay: cell competition; competitor 2C12-biotin

Row | Binder | Inhibition of binding (%)
25 | B1 | 0%
26 | B2 | 100%
27 | B3 | 100%
28 | B4 | 100%

Molecular target: T2, hCMV gH + gL + UL128 + UL130 + UL131A …
Assay: cell competition; competitor 8C15-biotin

Row | Binder | Inhibition of binding (%)
29 | B1 | 0%
30 | B2 | 100%
31 | B3 | 100%
32 | B4 | 100%

Molecular target: T2, hCMV gH + gL + UL128 + UL130 + UL131A …
Assay: cell competition; competitor 8I21-biotin

Row | Binder | Inhibition of binding (%)
33 | B1 | 0%
34 | B2 | 0%
35 | B3 | 0%
36 | B4 | 0%

Molecular target: T2, hCMV gH + gL + UL128 + UL130 + UL131A …
Assay: cell competition; competitor 8J16-biotin

Row | Binder | Inhibition of binding (%)
37 | B1 | 0%
38 | B2 | 100%
39 | B3 | 100%
40 | B4 | 100%
